Data reported in FireProtDB (doi:10.1073/pnas.0910421107).

B1: Ribose import binding protein RbsB, P02925 (parent)
chain: MNMKKLATLVSAVALSATVSANAMAKDTIALVVSTLNNPFFVSLKDGAQKEADKLGYNLVVLDSQNNPAKELANVQDLTVRGTKILLINPTDSDAVGNAVKMANQANIPVITLDRQATKGEVVSHIASDNVLGGKIAGDYIAKKAGEGAKVIELQGIAGTSAARERGEGFQQAVAAHKFNVLASQPADFDRIKGLNVMQNLLTAHPDVQAVFAQNDEMALGALRALQTAGKSDVMVVGFDGTPDGEKAVNDGKLAATIAQLPDQIGAKGVETADKVLKGEKVQAKYPVDLKLVVKQ

Variants of: B1
Conditions: Escherichia coli (strain K12), pH 7.6, Thermal, MOPS 25 mM, Potassium chloride 100 mM, structure 2DRI, whole UniProt chain shown
[1] = 25 °C, Quantitative cysteine reactivity
[2] = Quantitative cysteine reactivity

Variant	ddG of mutation (higher = less stable) (25 °C, Activity) [kcal/mol]	unfolding enthalpy (van 't Hoff) (25 °C, Activity) [kcal/mol]	unfolding free energy (25 °C, Activity) [kcal/mol]	unfolding enthalpy (van 't Hoff) [1] [kcal/mol]	unfolding free energy [1] [kcal/mol]	Tm (Activity) [°C]	change of melting temperature, mutant - wild type (higher = more stable) (Activity) [°C]	Tm [2] [°C]	change of melting temperature, mutant - wild type (higher = more stable) [2] [°C]
L87C	2.7	81	3.2	81	3.2	54	-8.6	54	-8.6
A213C				91	4.1	56	-6.6	56	-6.6
